# Source: PMC3229559
# Biological target: PKC-α (UniProt P20444)
# Assay: biotin-peptide pull-down from heart extract
# Settings: reference: non-phosphorylated peptide; sites S179
substance,measurement,value
"syndecan-4 cytoplasmic part, 171-198 (from UniProt O35988) pS179 peptide",binding against the reference,weaker
